Experimental data published in IntAct's records for PubMed 10446210.

B1: "Na(+)/H(+) exchange regulatory cofactor NHE-RF1" (Oryctolagus cuniculus (Rabbit)), Q28619 (parent)
chain: MSADAAAGAPLPRLCCLEKGPNGYGFHLHGEKGKVGQYIRLVEPGSPAEKAGLLAGDRLVEVNGENVEKETHQQVVSRIRAALNAVRLLVVDPDTDEQFRKLGVQIRGELLRAQAGPEQAGPPAAPGEQGPAGENEPREVEKSHPERRELRPRLCAMKKGPNGYGFNLHSDKSRPGQFIRAVDPDSPAEASGLREQDRIVEVNGVCVEGKQHGDVVTAIKAGGDEAKLLVVDKETDEFFKKCKVVPSSEHLNGPLPEPFTNGEIQKNNPETLAPAASESPRPALARSASSDTSEELASQDSPKKEDSTAPSSTSSSSDPILDFSISLAVAKERAHQKRSSRRAPQMDWSEKKELFSNL

Variants of: B1
Settings: with Grk6, O70293-1
Sequence of Grk6, O70293-1 (O70293 whole entry): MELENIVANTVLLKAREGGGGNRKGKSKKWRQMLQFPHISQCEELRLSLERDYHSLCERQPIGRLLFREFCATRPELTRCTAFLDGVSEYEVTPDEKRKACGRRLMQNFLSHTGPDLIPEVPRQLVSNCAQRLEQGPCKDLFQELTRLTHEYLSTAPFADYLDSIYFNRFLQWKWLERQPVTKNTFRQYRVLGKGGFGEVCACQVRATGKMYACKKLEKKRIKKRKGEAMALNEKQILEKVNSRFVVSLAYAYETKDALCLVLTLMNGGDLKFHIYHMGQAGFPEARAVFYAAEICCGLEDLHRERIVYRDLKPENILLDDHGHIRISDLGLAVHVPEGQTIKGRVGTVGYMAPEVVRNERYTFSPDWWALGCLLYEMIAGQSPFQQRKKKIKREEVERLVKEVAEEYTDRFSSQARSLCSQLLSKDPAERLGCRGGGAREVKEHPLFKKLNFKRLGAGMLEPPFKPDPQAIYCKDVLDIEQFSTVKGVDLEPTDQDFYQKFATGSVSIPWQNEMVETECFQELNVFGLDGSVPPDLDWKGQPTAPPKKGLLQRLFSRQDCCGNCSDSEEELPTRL

| effect of a mutation on the interaction | Variant |
| --- | --- |
| decreasing interaction | K158A |
| decreasing interaction | K159A |

Variants of: B1
Settings: with Grk6, O70293-1
Remark: another data set of the same source

| effect of a mutation on the interaction | Variant |
| --- | --- |
| disrupting interaction | S289A |
